Source: PMC3953656

Tests used:
[1] = target: malate dehydrogenase (UniProt P00346)
[2] = target: Trypanosoma brucei Hsp70.c (Trypanosoma brucei brucei TREU927)
[3] = target: Trypanosoma cruzi Hsp70B (Trypanosoma cruzi)

UniProt P00346, sequence (P00346 25-338): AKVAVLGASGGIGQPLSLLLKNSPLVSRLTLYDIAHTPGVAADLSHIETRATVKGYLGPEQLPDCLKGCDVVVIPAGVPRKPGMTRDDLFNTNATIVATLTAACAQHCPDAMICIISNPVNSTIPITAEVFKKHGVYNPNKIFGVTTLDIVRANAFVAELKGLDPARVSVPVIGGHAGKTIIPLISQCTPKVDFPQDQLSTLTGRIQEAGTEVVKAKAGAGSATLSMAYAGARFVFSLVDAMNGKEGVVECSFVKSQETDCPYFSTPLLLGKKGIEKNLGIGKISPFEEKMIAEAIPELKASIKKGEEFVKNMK

Row | stimulation of the basal ATPase activity of TbHsp70.c by Tbj2 (colorimetric phosphate release, 37°C, 600 µM ATP); equal concentrations 1.62-fold, Tbj2 at 2-fold molar excess 2.88-fold [2] [fold] | stimulation of the basal ATPase activity of TcHsp70B by Tbj2 (colorimetric phosphate release, 37°C, 600 µM ATP); equal concentrations 1.39-fold, Tbj2 at 2-fold molar excess 2.62-fold [3] [fold] | Substance | suppression of thermal aggregation of MDH (0.72 µM, 48°C, light scatter at 360 nm, 30 min) by TbHsp70.c, dose-dependent; number printed for 0.5 µM TbHsp70.c [1] [%]
1 |  |  | Trypanosoma brucei Hsp70.c (natural protein) | 61.8
2 | 2.88 | 2.62 | Trypanosoma brucei J protein 2 (natural protein) | 
